Reference: US20250268980A1, “AN ANTICANCER THERAPY TARGETING RAS AND OTHER ONCOGENIC SIGNALS BY INHIBITION OF DYNAMIC BLEBBING AND/OR SEPTINS” (THE BOARD OF REGENTS OF THE UNIVERSITY OF TEXAS SYSTEM, priority 2022, published 2025)

Legend:
[1] = target: SEPTIN8 (human) (UniProt Q92599); test: HaloLink pulldown from MV3 cells, LC-MS/MS
[2] = target: SEPTIN9 (human) (UniProt Q9UHD8); test: HaloLink pulldown from MV3 cells, LC-MS/MS
[3] = target: SEPTIN6 (human) (UniProt Q14141); test: HaloLink pulldown from MV3 cells, LC-MS/MS
[4] = target: SEPTIN10 (human) (UniProt Q9P0V9); test: HaloLink pulldown from MV3 cells, LC-MS/MS
[5] = target: SEPTIN2 (human) (UniProt Q15019); test: HaloLink pulldown from MV3 cells, LC-MS/MS
[6] = target: SEPTIN7 (human) (UniProt Q16181); test: HaloLink pulldown from MV3 cells, LC-MS/MS
[7] = target: SEPTIN11 (human) (UniProt Q9NVA2); test: HaloLink pulldown from MV3 cells, LC-MS/MS
[8] = target: SEPTIN8 (human) (UniProt Q92599); test: HaloLink pulldown from unperturbed A375 cells, LC-MS/MS
[9] = target: SEPTIN9 (human) (UniProt Q9UHD8); test: as above
[10] = target: SEPTIN6 (human) (UniProt Q14141); test: as above
[11] = target: SEPTIN10 (human) (UniProt Q9P0V9); test: as above
[12] = target: SEPTIN2 (human) (UniProt Q15019); test: as above
[13] = target: SEPTIN7 (human) (UniProt Q16181); test: as above
[14] = target: SEPTIN11 (human) (UniProt Q9NVA2); test: as above

Chain of SEPTIN8 (human) (Q92599 2-483 limits assumed): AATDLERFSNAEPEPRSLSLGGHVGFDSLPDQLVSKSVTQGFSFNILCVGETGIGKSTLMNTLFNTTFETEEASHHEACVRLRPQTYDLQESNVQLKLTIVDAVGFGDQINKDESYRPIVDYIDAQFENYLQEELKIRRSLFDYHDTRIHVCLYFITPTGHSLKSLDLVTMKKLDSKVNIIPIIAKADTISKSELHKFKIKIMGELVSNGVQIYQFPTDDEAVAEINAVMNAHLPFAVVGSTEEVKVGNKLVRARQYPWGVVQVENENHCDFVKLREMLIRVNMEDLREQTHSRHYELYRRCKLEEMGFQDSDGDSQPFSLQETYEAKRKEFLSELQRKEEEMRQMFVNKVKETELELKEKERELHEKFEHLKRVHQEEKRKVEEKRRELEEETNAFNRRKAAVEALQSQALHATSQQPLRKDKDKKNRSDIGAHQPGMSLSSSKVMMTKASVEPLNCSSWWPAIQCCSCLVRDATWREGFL
Chain of SEPTIN10 (human) (Q9P0V9 whole entry): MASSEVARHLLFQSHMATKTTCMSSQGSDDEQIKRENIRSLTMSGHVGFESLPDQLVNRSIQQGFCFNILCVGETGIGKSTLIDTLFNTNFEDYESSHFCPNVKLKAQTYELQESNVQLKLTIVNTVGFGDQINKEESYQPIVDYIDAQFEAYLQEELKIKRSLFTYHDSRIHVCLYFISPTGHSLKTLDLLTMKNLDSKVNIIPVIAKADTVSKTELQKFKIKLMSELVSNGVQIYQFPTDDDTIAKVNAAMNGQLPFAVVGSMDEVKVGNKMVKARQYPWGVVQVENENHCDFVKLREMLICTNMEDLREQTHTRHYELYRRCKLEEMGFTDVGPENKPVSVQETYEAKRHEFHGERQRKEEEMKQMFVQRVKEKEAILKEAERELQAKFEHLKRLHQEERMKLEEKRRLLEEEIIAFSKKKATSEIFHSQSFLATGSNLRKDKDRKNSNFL
Chain of SEPTIN2 (human) (Q15019 whole entry): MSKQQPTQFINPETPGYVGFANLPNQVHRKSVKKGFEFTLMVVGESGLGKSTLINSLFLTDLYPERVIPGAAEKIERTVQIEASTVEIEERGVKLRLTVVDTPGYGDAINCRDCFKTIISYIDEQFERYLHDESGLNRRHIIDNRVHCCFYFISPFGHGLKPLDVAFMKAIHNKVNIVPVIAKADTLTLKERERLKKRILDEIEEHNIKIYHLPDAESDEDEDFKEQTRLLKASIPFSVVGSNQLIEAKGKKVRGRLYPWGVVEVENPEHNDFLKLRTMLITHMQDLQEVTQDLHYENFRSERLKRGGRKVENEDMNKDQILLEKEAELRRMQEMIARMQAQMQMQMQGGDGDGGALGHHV
Chain of SEPTIN6 (human) (Q14141 2-434 limits assumed): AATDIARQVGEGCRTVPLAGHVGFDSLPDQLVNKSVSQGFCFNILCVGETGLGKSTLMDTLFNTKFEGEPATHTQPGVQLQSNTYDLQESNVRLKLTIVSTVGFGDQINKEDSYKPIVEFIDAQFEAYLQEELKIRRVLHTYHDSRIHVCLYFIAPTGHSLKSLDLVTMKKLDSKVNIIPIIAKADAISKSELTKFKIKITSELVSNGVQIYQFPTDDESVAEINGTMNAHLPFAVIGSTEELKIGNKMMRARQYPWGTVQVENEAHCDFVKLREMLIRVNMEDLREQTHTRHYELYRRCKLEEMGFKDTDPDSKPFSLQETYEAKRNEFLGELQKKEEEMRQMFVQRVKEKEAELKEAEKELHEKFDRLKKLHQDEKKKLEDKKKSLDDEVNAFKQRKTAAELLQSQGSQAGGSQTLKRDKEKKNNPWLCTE
Chain of SEPTIN7 (human) (Q16181 2-437 limits assumed): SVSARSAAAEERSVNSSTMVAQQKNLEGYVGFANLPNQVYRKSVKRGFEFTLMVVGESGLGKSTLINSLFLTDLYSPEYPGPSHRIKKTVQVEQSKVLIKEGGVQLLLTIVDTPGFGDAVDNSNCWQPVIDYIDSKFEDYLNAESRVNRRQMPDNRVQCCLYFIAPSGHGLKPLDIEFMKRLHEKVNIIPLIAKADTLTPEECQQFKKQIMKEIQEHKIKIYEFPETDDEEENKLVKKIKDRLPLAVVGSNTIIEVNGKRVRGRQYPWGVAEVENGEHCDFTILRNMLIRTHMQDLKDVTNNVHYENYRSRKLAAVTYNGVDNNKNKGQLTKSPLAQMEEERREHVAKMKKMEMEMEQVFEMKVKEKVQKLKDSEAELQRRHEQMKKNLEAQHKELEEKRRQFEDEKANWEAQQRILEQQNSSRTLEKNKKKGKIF
Chain of SEPTIN11 (human) (Q9NVA2 2-429 limits assumed): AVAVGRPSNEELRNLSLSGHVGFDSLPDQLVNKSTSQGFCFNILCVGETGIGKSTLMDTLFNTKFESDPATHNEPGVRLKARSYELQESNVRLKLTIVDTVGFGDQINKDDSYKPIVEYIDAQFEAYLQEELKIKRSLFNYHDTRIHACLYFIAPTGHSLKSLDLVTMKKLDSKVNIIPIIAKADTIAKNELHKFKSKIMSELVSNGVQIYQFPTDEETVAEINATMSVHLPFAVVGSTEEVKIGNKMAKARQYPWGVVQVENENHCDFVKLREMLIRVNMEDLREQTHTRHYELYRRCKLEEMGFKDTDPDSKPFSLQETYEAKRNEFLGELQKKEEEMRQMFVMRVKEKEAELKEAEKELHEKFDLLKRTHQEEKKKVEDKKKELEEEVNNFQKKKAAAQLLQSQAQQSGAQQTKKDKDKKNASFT
Chain of SEPTIN9 (human) (Q9UHD8 whole entry): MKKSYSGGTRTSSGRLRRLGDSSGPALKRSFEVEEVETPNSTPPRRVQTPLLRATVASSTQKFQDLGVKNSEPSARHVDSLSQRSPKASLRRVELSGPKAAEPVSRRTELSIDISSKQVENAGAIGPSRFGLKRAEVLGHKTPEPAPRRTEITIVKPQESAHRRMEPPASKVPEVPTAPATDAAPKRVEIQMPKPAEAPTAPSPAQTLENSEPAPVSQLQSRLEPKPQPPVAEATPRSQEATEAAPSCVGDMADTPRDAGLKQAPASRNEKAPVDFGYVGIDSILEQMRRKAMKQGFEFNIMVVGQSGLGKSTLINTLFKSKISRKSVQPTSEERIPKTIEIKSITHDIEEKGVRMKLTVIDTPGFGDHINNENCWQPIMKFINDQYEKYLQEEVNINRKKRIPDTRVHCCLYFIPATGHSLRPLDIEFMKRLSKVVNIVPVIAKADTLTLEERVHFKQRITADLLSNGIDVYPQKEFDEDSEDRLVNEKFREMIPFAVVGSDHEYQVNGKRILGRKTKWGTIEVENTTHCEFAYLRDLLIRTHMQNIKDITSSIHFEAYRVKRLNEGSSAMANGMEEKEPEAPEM

mouse SEPT6-HALO (from UniProt Q9R1T4 2-434)
% of total protein abundance [1]: < 0.01%
% of total septin abundance [1]: 0.09%
fold change between lysate and pulldown (% of total septin abundance) [1]: -3.44 fold
% of total protein abundance [2]: 1.85%
% of total septin abundance [2]: 23%
fold change between lysate and pulldown (% of total protein abundance) [2]: 61.7 fold
fold change between lysate and pulldown (% of total septin abundance) [2]: 1.78 fold
% of total protein abundance [3]: 1.03%
% of total septin abundance [3]: 12.8%
fold change between lysate and pulldown (% of total protein abundance) [3]: 11.4 fold
fold change between lysate and pulldown (% of total septin abundance) [3]: -3.2 fold
% of total protein abundance [4]: 0.28%
% of total septin abundance [4]: 3.19%
fold change between lysate and pulldown (% of total protein abundance) [4]: 7 fold
fold change between lysate and pulldown (% of total septin abundance) [4]: -5.32 fold
% of total protein abundance [5]: 2.43%
% of total septin abundance [5]: 30.1%
fold change between lysate and pulldown (% of total protein abundance) [5]: 60.8 fold
fold change between lysate and pulldown (% of total septin abundance) [5]: 1.5 fold
% of total protein abundance [6]: 2.41%
% of total septin abundance [6]: 29.9%
fold change between lysate and pulldown (% of total protein abundance) [6]: 120 fold
fold change between lysate and pulldown (% of total septin abundance) [6]: 3.39 fold
% of total protein abundance [7]: 0.08%
% of total septin abundance [7]: 0.94%
% of total protein abundance [8]: < 0.01%
% of total septin abundance [8]: 0.02%
% of total protein abundance [9]: 1.55%
% of total septin abundance [9]: 22.1%
fold change between lysate and pulldown (% of total protein abundance) [9]: 77.5 fold
fold change between lysate and pulldown (% of total septin abundance) [9]: 1.62 fold
% of total protein abundance [10]: 1.67%
% of total septin abundance [10]: 23.8%
fold change between lysate and pulldown (% of total protein abundance) [10]: 55.7 fold
fold change between lysate and pulldown (% of total septin abundance) [10]: -1.33 fold
% of total protein abundance [11]: 0.51%
% of total septin abundance [11]: 7.23%
fold change between lysate and pulldown (% of total septin abundance) [11]: 3.77 fold
% of total protein abundance [12]: 1.81%
% of total septin abundance [12]: 25.7%
fold change between lysate and pulldown (% of total protein abundance) [12]: 60.3 fold
fold change between lysate and pulldown (% of total septin abundance) [12]: -1.03 fold
% of total protein abundance [13]: 1.48%
% of total septin abundance [13]: 21.1%
fold change between lysate and pulldown (% of total protein abundance) [13]: 74 fold
fold change between lysate and pulldown (% of total septin abundance) [13]: 1.35 fold
% of total protein abundance [14]: < 0.01%
% of total septin abundance [14]: 0.12%
fold change between lysate and pulldown (% of total septin abundance) [14]: -44.7 fold
